# T1: Sac3 (residues 140-805) (S. cerevisiae, UniProt P46674 140-805)
# T1 construct: Sac3, S. cerevisiae, residues 140-805 by the complex's name; the text says that residues 1-140 were deleted; also called Sac3 of TREX-2^140–805
# T1 sequence (looked up): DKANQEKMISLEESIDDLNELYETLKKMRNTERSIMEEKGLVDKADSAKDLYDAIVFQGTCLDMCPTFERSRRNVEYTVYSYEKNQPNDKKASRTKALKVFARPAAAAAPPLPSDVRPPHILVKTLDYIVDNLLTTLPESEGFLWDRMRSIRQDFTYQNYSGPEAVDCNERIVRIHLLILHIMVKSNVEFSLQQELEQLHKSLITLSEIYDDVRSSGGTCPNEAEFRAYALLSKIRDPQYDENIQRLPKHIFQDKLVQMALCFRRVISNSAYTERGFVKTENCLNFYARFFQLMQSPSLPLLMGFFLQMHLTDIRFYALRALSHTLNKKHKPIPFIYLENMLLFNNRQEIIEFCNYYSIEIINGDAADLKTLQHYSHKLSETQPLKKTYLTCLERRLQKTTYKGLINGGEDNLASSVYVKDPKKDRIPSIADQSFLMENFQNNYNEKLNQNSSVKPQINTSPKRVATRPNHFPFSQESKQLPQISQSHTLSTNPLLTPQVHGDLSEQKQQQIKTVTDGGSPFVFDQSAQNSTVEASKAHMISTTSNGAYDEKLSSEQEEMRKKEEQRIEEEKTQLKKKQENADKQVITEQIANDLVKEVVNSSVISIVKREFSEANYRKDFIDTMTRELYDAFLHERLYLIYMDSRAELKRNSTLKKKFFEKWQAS
# B1: Thp1 (natural protein, S. cerevisiae, UniProt Q08231 1-455, looked up)
# chain: MDMANQLLDELAHGNFSHLTLNLSQNGREIAILQKQLTGFDDKQLETFVEQHPAMPNDTRFKIMCTSFLNYARDVDPWSAWSSSDLIFEFYQCLINCLINDNAPHIEMLIPVATRETEFIINLAGKLDSFHLQLHTRSHQFLSHISSILSRLFNSIKPPRGNASSTNIPGKQRILLYLVNKLNNIYFRIESPQLCSNIFKNFQPKSMLAHFNEYQLDQQIEYRYLLGRYYLLNSQVHNAFVQFNEAFQSLLNLPLTNQAITRNGTRILNYMIPTGLILGKMVKWGPLRPFLSQETIDNWSVLYKHVRYGNIQGVSLWLRQNERHLCARQLLIVLLEKLPMVTYRNLIKTVIKSWTTEWGQNKLPYSLIERVLQLSIGPTFEDPGAQEITIYNGIHSPKNVENVLVTLINLGLLRANCFPQLQLCVVKKTTMIQEIVPPVNERITKMFPAHSHVLW
# notes: Thp1, S. cerevisiae; The theoretical mass of 195 kDa for TREX-2^1-805 fits whole chains of the four small subunits; source: Sf9, baculovirus, co-expressed with GST-Sac3; in lysate and purified with the complex (glutathione Sepharose, heparin, SEC)
# B2: Sem1 (natural protein, S. cerevisiae, UniProt O94742 1-89, looked up)
# chain: MSTDVAAAQAQSKIDLTKKKNEEINKKSLEEDDEFEDFPIDTWANGETIKSNAVTQTNIWEENWDDVEVDDDFTNELKAELDRYKRENQ
# notes: Sem1, S. cerevisiae; source: Sf9, baculovirus, co-expressed with GST-Sac3; in lysate and purified with the complex (glutathione Sepharose, heparin, SEC)
# B3: Cdc31 (natural protein, S. cerevisiae, UniProt P06704 1-161, looked up)
# chain: MSKNRSSLQSGPLNSELLEEQKQEIYEAFSLFDMNNDGFLDYHELKVAMKALGFELPKREILDLIDEYDSEGRHLMKYDDFYIVMGEKILKRDPLDEIKRAFQLFDDDHTGKISIKNLRRVAKELGETLTDEELRAMIEEFDLDGDGEINENEFIAICTDS
# notes: Cdc31, S. cerevisiae; source: Sf9, baculovirus, co-expressed with GST-Sac3; in lysate and purified with the complex (glutathione Sepharose, heparin, SEC)
# B4: Sus1 (natural protein, S. cerevisiae, UniProt Q6WNK7 1-96, looked up)
# chain: MTMDTAQLKSQIQQYLVESGNYELISNELKARLLQEGWVDKVKDLTKSEMNINESTNFTQILSTVEPKALEMVSDSTRETVLKQIREFLEEIVDTQ
# notes: Sus1, S. cerevisiae; source: Sf9, baculovirus, co-expressed with GST-Sac3; in lysate and purified with the complex (glutathione Sepharose, heparin, SEC)
# Target: T1, Sac3 (residues 140-805)
# Assay: SEC-SAXS; on-line HPLC with Superdex 200 Increase 3.2/300, beamline BM29 (ESRF), 20 °C; mass from I(0) against a BSA standard
# Conditions: both partners purified
row,Binder,binding result
1,B1,binds
2,B2,binds
3,B3,binds
4,B4,binds

# From publication PMC4991852, “The Sac3 TPR-like region in the Saccharomyces cerevisiae TREX-2 complex is more extensive but independent of the CID region” (Journal of Structural Biology, 2016)
